Common to all, as to assay: cell-based or functional assay
Assay [1] addresses T1, AVR3a homolog from Phytophthora palmivora designated as L7B (Phytophthora palmivora).
T1 sequence: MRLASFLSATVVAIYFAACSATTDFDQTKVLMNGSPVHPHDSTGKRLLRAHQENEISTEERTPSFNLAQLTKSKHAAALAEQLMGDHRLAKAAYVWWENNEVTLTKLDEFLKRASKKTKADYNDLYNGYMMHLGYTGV

Assay [2] has as its target T2, AVR3a homolog from Phytophthora palmivora designated as L6B (Phytophthora palmivora).
T2 sequence: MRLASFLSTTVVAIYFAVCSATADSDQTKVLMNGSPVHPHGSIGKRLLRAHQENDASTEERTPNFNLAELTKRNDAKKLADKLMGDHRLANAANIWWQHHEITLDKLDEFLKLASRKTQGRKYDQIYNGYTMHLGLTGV

In assay [3] the target is AVR3a^KI effector protein of Phytophthora infestans (Phytophthora infestans) (UniProt Q572D3).
Assay [4] concerns the target T3, AVR3a homolog from Phytophthora palmivora designated as L3B (Phytophthora palmivora).
T3 sequence: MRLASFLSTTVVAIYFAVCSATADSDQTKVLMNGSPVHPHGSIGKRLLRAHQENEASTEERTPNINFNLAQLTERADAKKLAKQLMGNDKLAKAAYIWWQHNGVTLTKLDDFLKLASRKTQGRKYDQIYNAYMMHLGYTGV

B1: wild-type R3a protein (protein)
chain: MEIGLAVGGAFLSSALNVLFDRLAPHGDLLNMFQKHKDHVKLLKKLEDILLGLQIVLSDAENKQASNRHVSQWFNKLQNAVDGAENLIEQVNYEALRLKVEGQHQNLAETSNQQVSDLNLCFSDDFFLNIKDKLEETIETLEVLEKQIGRLGLKEHFGSTKQETRTPSTSLVDDSDIFGRQNDIEDLIDRLLSEDASGKKRTVVPIVGMGGLGKTTLAKAVYNDERVQIHFGLKAWFCVSEAFDAFRITKGLLQEIGSFDLKADDNLNQLQVKLKERLKGKKFLIVLDDVWNDNYNKWDELRNVFVQGDIGSKIIVTTRKESVALMMGNEQISMDNLSTESSWSLFKTHAFENMGPMGHPELEEVGKQIAAKCKGLPLALKTLAGMLRSKSEVEEWKRILRSEIWELPHNDILPALMLSYNDLPAHLKRCFSFCAIFPKDYPFRKEQVIHLWIANGLVPQEDVIIEDSGNQYFLELRSRSLFERVPNPSQGNTENLFLMHDLVNDLAQIASSKLCIRLEESQGSHMLEQSQHLSYSMGYGGEFEKLTPLYKLEQLRTLLPTCIDLPDCCHHLSKRVLHNILPRLTSLRALSLSCYEIVELPNDLFIKLKLLRFLDISRTEIKRLPDSICALYNLETLLLSSCYDLEELPLQMEKLINLRHLDISNTRLLKMPLHLSKLKSLQVLVGAKFLIGGLRMEDLGEVHNLYGSLSVVELQNVVDRREAVKAKMREKNHVDRLYLEWSGSSSADNSQTERDILDELRPHKNIKVVKITGYRGTNFPNWLADPLFLKLVKLSLRNCKNCYSLPALGQLPFLKFLSIREMHGITEVTEEFYGSWSSKKPFNCLEKLEFKDMPEWKQWDLLGSGEFPILEKLLIENCPELSLETVPIQLSSLKSFDVIGSPLVINFPLSILPTTLKRIKISDCQKLKLEQPTGEISMFLEELTLIKCDCIDDISPELLPRARKLWVQDWHNLTRFLIPTATETLDIWNCENVEILSVACGGTQMTSLTIAYCKKLKWLPERMQELLPSLKELHLSNCPEIESFPEGGLPFNLQQLAIRYCKKLVNGRKEWHLQRRLCLTALIIYHDGSDEEIVGGENWELPSSIQRLTIVNLKTLSSQHLKNLTSLQYLFIRGNLPQIQPMLEQGQCSHLTSLQSLQISSLQSLPESALPSSLSHLEISHCPNLQSLPESALPSSLSQLTINNCPNLQSLSESTLPSSLSQLEISFCPNLQYLPLKGMPSSLSELSIYKCPLLKPQLEFDKGEYWPNIAQFPTIKIDRECM
As to B1, in assay [1], the Cell death/HR intensity, pBIN::35S-R3a, 1dpi is 0; the Cell death/HR intensity, pBIN::35S-R3a, 2dpi was found to be 1; the Cell death/HR intensity, pBIN::35S-R3a, 3dpi is 1; the Cell death/HR intensity, pVnt1-R3a, 1dpi stood at 0. In assay [1], this molecule had a Cell death/HR intensity, pVnt1-R3a, 2dpi of 1 and a Cell death/HR intensity, pVnt1-R3a, 3dpi of 1. In assay [2], the Cell death/HR intensity, pBIN::35S-R3a, 1dpi came to 0; the Cell death/HR intensity, pBIN::35S-R3a, 2dpi was 0; the Cell death/HR intensity, pBIN::35S-R3a, 3dpi stood at 0; the Cell death/HR intensity, pVnt1-R3a, 1dpi came to 0. Moreover, in assay [2], the Cell death/HR intensity, pVnt1-R3a, 2dpi was found to be 0 and the Cell death/HR intensity, pVnt1-R3a, 3dpi is 0. In assay [3], this molecule gave a Cell death/HR intensity, pBIN::35S-R3a, 1dpi of 1; a Cell death/HR intensity, pBIN::35S-R3a, 2dpi of 1; a Cell death/HR intensity, pBIN::35S-R3a, 3dpi of 2; a Cell death/HR intensity, pVnt1-R3a, 1dpi of 2. In assay [3], the Cell death/HR intensity, pVnt1-R3a, 2dpi amounted to 3 and the Cell death/HR intensity, pVnt1-R3a, 3dpi stood at 4. In assay [4], this molecule registered a Cell death/HR intensity, pBIN::35S-R3a, 1dpi of 0; a Cell death/HR intensity, pBIN::35S-R3a, 2dpi of 1; a Cell death/HR intensity, pBIN::35S-R3a, 3dpi of 2; a Cell death/HR intensity, pVnt1-R3a, 1dpi of 0. In assay [4], this molecule came in with a Cell death/HR intensity, pVnt1-R3a, 2dpi of 0 and a Cell death/HR intensity, pVnt1-R3a, 3dpi of 0.

Source of the values: patent US20130097734A1.
